# Experimental data reported in IntAct's records for PubMed 17496150.
# B1: "Peptide-N(4)-(N-acetyl-beta-glucosaminyl)asparagine amidase" (Mus musculus), Q9JI78 (parent)
# chain: MASATLGSSSSSASPAVAELCQNTPETFLEASKLLLTYADNILRNPSDEKYRSIRIGNTAFSTRLLPVRGAVECLFEMGFEEGETHLIFPKKASVEQLQKIRDLIAIERSSRLDGSSKKVQFSQHPAAAKLPLEQSEDPAGLIRHSGNQTGQLPSLPSAPMVVGDSTILKVLQSNIQHVQLYENPVLQEKALTCIPVSELKRKAQEKLFRARKLDKGTNVSDEDFLLLELLHWFKEEFFRWVNNIVCSKCGGETRSRDEALLPNDDELKWGAKNVENHYCDACQLSNRFPRYNNPEKLLETRCGRCGEWANCFTLCCRALGFEARYVWDYTDHVWTEVYSPSQQRWLHCDACEDVCDKPLLYEIGWGKKLSYIIAFSKDEVVDVTWRYSCKHDEVMSRRTKVKEELLRETINGLNKQRQLSLSESRRKELLQRIIVELVEFISPKTPRPGELGGRVSGSLAWRVARGETGLERKEILFIPSENEKISKQFHLRYDIVRDRYIRVSDNNINISGWENGVWKMESIFRKVEKDWNMVYLARKEGSSFAYISWKFECGSAGLKVDTVSIRTSSQSFESGSVRWKLRSETAQVNLLGDKNLRSYNDFSGATEVTLEAELSRGDGDVAWQHTQLFRQSLNDSGENGLEIIITFNDL
# Variants of: B1
# Conditions: with tera_mouse Vcp
row,Variant,effect of a mutation on the interaction
1,N58D,disrupting interaction strength

# Variants of: B1
# Conditions: with tera_mouse Vcp
# Remark: another data set of the same source
row,Variant,effect of a mutation on the interaction
1,R55E,disrupting interaction strength
